One series has as its system biotinyl-Phe-oxazolone. Briefly: self-aminoacylation, catalytic enhancement (BFO) (fold over background); higher = more active; k-Seq, kA / k0A0; sequences stand for … in GGGAAUGGAUCCACAUCUACGAAUUC…UUCACUGCAGACUUGACGAAGCUG
The gist of the method: (§1)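 Each biotinyl-aminoacyl-oxazolone, at 2–1250 μM, was incubated with mutagenized RNA pools (0.43 μM) carrying a 21-nt variable region. The 50 μL reactions contained HEPES/NaCl/KCl/MgCl2/CaCl2 buffer with 5% acetonitrile at pH 6.9–7.0 and ran for 90 minutes at room temperature. After streptavidin capture, RNA was measured by qPCR in triplicate and by Illumina sequencing, and catalytic enhancement was calculated as median kA over the uncatalyzed rate from a pseudo-first-order fit of per-sequence fraction reacted.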

The next series deals with biotinyl-Val-oxazolone. Briefly: self-aminoacylation, catalytic enhancement (BVO) (fold over background); higher = more active; k-Seq, kA / k0A0; sequences stand for … in GGGAAUGGAUCCACAUCUACGAAUUC…UUCACUGCAGACUUGACGAAGCUG
In a few lines: as §1

The test system of a further series is biotinyl-Leu-oxazolone. Briefly: self-aminoacylation, catalytic enhancement (BLO) (fold over background); higher = more active; k-Seq, kA / k0A0; sequences stand for … in GGGAAUGGAUCCACAUCUACGAAUUC…UUCACUGCAGACUUGACGAAGCUG
In a few lines:
as §1

The test system of a further series is biotinyl-Met-oxazolone. Briefly: self-aminoacylation, catalytic enhancement (BMO) (fold over background); higher = more active; k-Seq, kA / k0A0; sequences stand for … in GGGAAUGGAUCCACAUCUACGAAUUC…UUCACUGCAGACUUGACGAAGCUG
In a few lines: as §1

For another series, the system named is biotinyl-Ile-oxazolone. Briefly: self-aminoacylation, catalytic enhancement (BIO) (fold over background); higher = more active; k-Seq, kA / k0A0; sequences stand for … in GGGAAUGGAUCCACAUCUACGAAUUC…UUCACUGCAGACUUGACGAAGCUG
In a few lines: as §1

A further series relates to biotinyl-Trp-oxazolone. Briefly: self-aminoacylation, catalytic enhancement (BWO) (fold over background); higher = more active; k-Seq, kA / k0A0; sequences stand for … in GGGAAUGGAUCCACAUCUACGAAUUC…UUCACUGCAGACUUGACGAAGCUG
The gist of the method:
as §1

This sample holds only a part of the variants without activity.

Take “AUGCACCUAGGUCAUCUGGUG [Fam2.2 aminoacylation ribozyme variant]”: the self-aminoacylation in the series with biotinyl-Phe-oxazolone came out at 10.8; with biotinyl-Val-oxazolone, 1.69; with biotinyl-Leu-oxazolone, 2.34; in the series with biotinyl-Met-oxazolone, 1.95; in the series on biotinyl-Ile-oxazolone, 1.67; in the series on biotinyl-Trp-oxazolone, 2.17.
Consider “AUGCACCUAGGUCAUGGGGUG [Fam2.2 aminoacylation ribozyme variant]”, for which the self-aminoacylation with biotinyl-Phe-oxazolone stood at 31.3; in the series with biotinyl-Val-oxazolone, 3.42; in the series on biotinyl-Leu-oxazolone, 4.53; with biotinyl-Met-oxazolone, 4.33; in the series with biotinyl-Ile-oxazolone, 3.85; with biotinyl-Trp-oxazolone, 5.66.
In the case of “AUGCACCUUGGUCAUCGGGUG [Fam2.2 aminoacylation ribozyme variant]”, the self-aminoacylation stood at 65.4 with biotinyl-Phe-oxazolone; 5.41 in the series on biotinyl-Val-oxazolone; 9.83 in the series with biotinyl-Leu-oxazolone; 7.63 in the series on biotinyl-Met-oxazolone; 5.37 with biotinyl-Ile-oxazolone; 8.29 in the series on biotinyl-Trp-oxazolone.
For “AUGCGCCUAGGUCAUCGGGUG [Fam2.2 aminoacylation ribozyme variant]”, the self-aminoacylation was 60.9 in the series on biotinyl-Phe-oxazolone; 6.24 with biotinyl-Val-oxazolone; 10.7 in the series on biotinyl-Leu-oxazolone; 9.32 in the series on biotinyl-Met-oxazolone; 6.21 in the series with biotinyl-Ile-oxazolone; 9.8 with biotinyl-Trp-oxazolone.
On to “AUGUUUGCUAAUAAUCGCAAG [Fam3.1 aminoacylation ribozyme variant]”, for which the self-aminoacylation in the series with biotinyl-Phe-oxazolone worked out at 1.34; with biotinyl-Val-oxazolone, 1.35; in the series on biotinyl-Leu-oxazolone, 1.06; in the series with biotinyl-Met-oxazolone, 0.97; in the series on biotinyl-Ile-oxazolone, 1.38; in the series with biotinyl-Trp-oxazolone, 1.04.
On to “AUGUUUGCUAAUACUCGCAAG [Fam3.1 aminoacylation ribozyme variant]”, for which the self-aminoacylation is 0.958 in the series with biotinyl-Phe-oxazolone; 0.908 with biotinyl-Val-oxazolone; 0.966 with biotinyl-Leu-oxazolone; 0.735 with biotinyl-Met-oxazolone; 0.985 in the series with biotinyl-Ile-oxazolone; 0.728 with biotinyl-Trp-oxazolone.
Turning to “AUGUUUGCUAAUAGACGCAAG [Fam3.1 aminoacylation ribozyme variant]”, the self-aminoacylation was determined as 0.828 in the series with biotinyl-Phe-oxazolone; 0.736 with biotinyl-Val-oxazolone; 0.564 in the series with biotinyl-Leu-oxazolone; 0.611 in the series on biotinyl-Met-oxazolone; 0.691 in the series on biotinyl-Ile-oxazolone; 0.508 in the series on biotinyl-Trp-oxazolone.
As for “AUGUUUGCUAAUAGUAGCAAG [Fam3.1 aminoacylation ribozyme variant]”, the self-aminoacylation with biotinyl-Phe-oxazolone worked out at 1.67; in the series with biotinyl-Val-oxazolone, 1.36; with biotinyl-Leu-oxazolone, 0.912; in the series with biotinyl-Met-oxazolone, 1.34; in the series with biotinyl-Ile-oxazolone, 1.29; in the series with biotinyl-Trp-oxazolone, 0.911.
Turning to “AUGUUUGCUAAUAGUCCCAAG [Fam3.1 aminoacylation ribozyme variant]”, the self-aminoacylation in the series on biotinyl-Phe-oxazolone came to 2.79; in the series with biotinyl-Val-oxazolone, 1.11; in the series with biotinyl-Leu-oxazolone, 0.966; with biotinyl-Met-oxazolone, 0.965; with biotinyl-Ile-oxazolone, 1.08; in the series with biotinyl-Trp-oxazolone, 1.25.
For “AUGUUUGCUAAUAGUCGCAAA [Fam3.1 aminoacylation ribozyme variant]”, the self-aminoacylation turned out to be 4.87 in the series on biotinyl-Phe-oxazolone; 1.59 with biotinyl-Val-oxazolone; 1.54 with biotinyl-Leu-oxazolone; 1.75 in the series on biotinyl-Met-oxazolone; 2.2 in the series on biotinyl-Ile-oxazolone; 2.71 in the series with biotinyl-Trp-oxazolone.
Turning to “AUGUUUGCUAAUAGUCUCAAG [Fam3.1 aminoacylation ribozyme variant]”, the self-aminoacylation came out at 5.12 in the series with biotinyl-Phe-oxazolone; 1.04 in the series with biotinyl-Val-oxazolone; 1.01 in the series with biotinyl-Leu-oxazolone; 1.12 with biotinyl-Met-oxazolone; 1.27 in the series on biotinyl-Ile-oxazolone; 1.43 with biotinyl-Trp-oxazolone.
For “AUUAACCAGGUCAUCGAGUGA [Fam2.1 aminoacylation ribozyme variant]”, the self-aminoacylation in the series on biotinyl-Phe-oxazolone stood at 22.2; in the series with biotinyl-Val-oxazolone it was 2.8; with biotinyl-Leu-oxazolone it was 5.32; with biotinyl-Met-oxazolone it was 5.17; in the series on biotinyl-Ile-oxazolone, 3.17; in the series with biotinyl-Trp-oxazolone, 6.86.
Regarding “AUUAACCUAGCUCAUCGGGUG [Fam2.2 aminoacylation ribozyme variant]”, the self-aminoacylation with biotinyl-Phe-oxazolone was 8.47; in the series with biotinyl-Val-oxazolone, 1.79; with biotinyl-Leu-oxazolone it was 1.65; in the series on biotinyl-Met-oxazolone, 1.96; with biotinyl-Ile-oxazolone it was 1.79; in the series with biotinyl-Trp-oxazolone, 1.86.
On to “AUUAACCUAGGCCAUCGGGUG [Fam2.2 aminoacylation ribozyme variant]”, for which the self-aminoacylation was determined as 15.1 in the series with biotinyl-Phe-oxazolone; 2.45 in the series with biotinyl-Val-oxazolone; 4.62 in the series with biotinyl-Leu-oxazolone; 3.21 in the series with biotinyl-Met-oxazolone; 2.31 in the series with biotinyl-Ile-oxazolone; 3.52 in the series on biotinyl-Trp-oxazolone.
Take “AUUAACCUAGGUCAUCGGGUA [Fam2.2 aminoacylation ribozyme variant]”: the self-aminoacylation is 262 in the series on biotinyl-Phe-oxazolone; 13.9 in the series with biotinyl-Val-oxazolone; 46.4 with biotinyl-Leu-oxazolone; 33.2 with biotinyl-Met-oxazolone; 17.7 in the series with biotinyl-Ile-oxazolone; 20.3 in the series with biotinyl-Trp-oxazolone.
In the case of “AUUAACCUAGGUCUUCGGGUG [Fam2.2 aminoacylation ribozyme variant]”, the self-aminoacylation came out at 17.9 with biotinyl-Phe-oxazolone; 2.73 in the series on biotinyl-Val-oxazolone; 3.58 with biotinyl-Leu-oxazolone; 2.98 in the series on biotinyl-Met-oxazolone; 2.64 in the series on biotinyl-Ile-oxazolone; 2.95 in the series on biotinyl-Trp-oxazolone.
Turning to “AUUAACCUCGUCAUCGAGUGA [Fam2.1 aminoacylation ribozyme variant]”, the self-aminoacylation with biotinyl-Phe-oxazolone is 3.89; in the series on biotinyl-Val-oxazolone it was 2.25; with biotinyl-Leu-oxazolone, 2.82; in the series with biotinyl-Met-oxazolone it was 3.27; with biotinyl-Ile-oxazolone it was 2.33; in the series with biotinyl-Trp-oxazolone, 4.68.
Take “AUUAACCUGGUCAUCAAGUGA [Fam2.1 aminoacylation ribozyme variant]”: the self-aminoacylation with biotinyl-Phe-oxazolone amounted to 4.41; in the series with biotinyl-Val-oxazolone, 1.85; in the series on biotinyl-Leu-oxazolone, 2.94; in the series with biotinyl-Met-oxazolone, 3.1; in the series on biotinyl-Ile-oxazolone, 1.76; with biotinyl-Trp-oxazolone, 3.18.
“AUUAACCUGGUCAUCGACUGA [Fam2.1 aminoacylation ribozyme variant]”: the self-aminoacylation with biotinyl-Phe-oxazolone was found to be 0.674; in the series with biotinyl-Val-oxazolone it was 0.746; with biotinyl-Leu-oxazolone it was 0.938; in the series on biotinyl-Met-oxazolone it was 0.801; with biotinyl-Ile-oxazolone it was 0.842; with biotinyl-Trp-oxazolone, 0.612.
Turning to “AUUAACCUGGUCAUCGAGUCA [Fam2.1 aminoacylation ribozyme variant]”, the self-aminoacylation came to 0.5 in the series with biotinyl-Phe-oxazolone; 0.711 with biotinyl-Val-oxazolone; 0.662 in the series on biotinyl-Leu-oxazolone; 0.763 with biotinyl-Met-oxazolone; 0.698 in the series with biotinyl-Ile-oxazolone; 0.405 in the series on biotinyl-Trp-oxazolone.
With “AUUAACCUGGUCAUCGAUUGA [Fam2.1 aminoacylation ribozyme variant]”, the self-aminoacylation with biotinyl-Phe-oxazolone was 0.76; in the series on biotinyl-Val-oxazolone, 0.818; in the series on biotinyl-Leu-oxazolone, 0.88; in the series with biotinyl-Met-oxazolone, 0.959; in the series with biotinyl-Ile-oxazolone it was 0.963; in the series with biotinyl-Trp-oxazolone it was 1.15.
Take “AUUAACCUGGUCAUUGAGUGA [Fam2.1 aminoacylation ribozyme variant]”: the self-aminoacylation in the series on biotinyl-Phe-oxazolone was determined as 53.1; in the series with biotinyl-Val-oxazolone, 4.05; in the series on biotinyl-Leu-oxazolone it was 9.89; with biotinyl-Met-oxazolone it was 9.39; with biotinyl-Ile-oxazolone, 4.38; in the series with biotinyl-Trp-oxazolone, 12.
For the sequence “AUUAACCUGGUCUUCGAGUGA [Fam2.1 aminoacylation ribozyme variant]”, the self-aminoacylation in the series on biotinyl-Phe-oxazolone worked out at 13; in the series on biotinyl-Val-oxazolone, 2.71; with biotinyl-Leu-oxazolone, 4.66; in the series on biotinyl-Met-oxazolone it was 4.3; with biotinyl-Ile-oxazolone it was 2.4; in the series on biotinyl-Trp-oxazolone, 6.87.
“AUUAACCUGGUUAUCGAGUGA [Fam2.1 aminoacylation ribozyme variant]”: the self-aminoacylation in the series with biotinyl-Phe-oxazolone was determined as 41.7; in the series with biotinyl-Val-oxazolone it was 3.81; in the series with biotinyl-Leu-oxazolone, 9.67; in the series on biotinyl-Met-oxazolone it was 8.32; in the series with biotinyl-Ile-oxazolone, 4.13; in the series with biotinyl-Trp-oxazolone, 10.7.
Consider “AUUAACCUGUUCAUCGAGUGA [Fam2.1 aminoacylation ribozyme variant]”, for which the self-aminoacylation in the series with biotinyl-Phe-oxazolone was 15.8; in the series on biotinyl-Val-oxazolone, 2.4; in the series on biotinyl-Leu-oxazolone, 4.93; in the series on biotinyl-Met-oxazolone, 4.16; in the series on biotinyl-Ile-oxazolone it was 2.4; in the series with biotinyl-Trp-oxazolone, 5.29.

The values above are taken from the supplement of paper PMC9233669.
